Results taken from publication PMC3948627.

Target: Aha1 I64X (pAzpa at position 64) with C-terminal V5/His6-tag (S. cerevisiae) (UniProt Q12449)
Test: cross-linking; in vivo photo-cross-linking (pAzpa, UV 365 nm), crosslink product immunoprecipitated by anti-V5, separated by 6% SDS-PAGE, band digested and identified by MALDI-TOF/MS

- stoichiometry N: 2
Substance: Aha1 I64X (pAzpa at position 64) with C-terminal V5/His6-tag (from UniProt Q12449 1-350)
